Results on 18 sequences are retold here after the DeepSol protein solubility set.

A short description of the series: soluble on expression in E. coli; label from the status in PepcDB or PDB records.
“GSPEFMDDIFTQCREGNAVAVRLWLDNTENDLNQGDDHGFSPLHWACREGRSAVVEMLIMRGARINVMNRGDDTPLHLAASHGHRDIVQKLLQYKADINAVNEHGNVPLHYACFWGQDQVAEDLVANGALVSICNKYGEMPVDKAKAPLRELLRERAEKMGQNLNRIPYKDTFWKGTTR”: the “soluble on expression in E. coli” value is “soluble”.
“MGSDKIHHHHHHMSDSQTVSAAVAKLYNTYPFPPEALLDEPPPGYNWRWNWLAAHNFCTGQKPQKQDIRILDAGCGTGVSTEYLVHLNPQASVVGIDLSTGALDVAKERCQRSGANRVEFHHLSLFDVEQLPGEFDLINCVGVLHHTSDPIRGIQALAQKLAPGGLMHIFVYGELGRWEIQLMQKAIALLQGDKKGDYRDGVQVGRQIFASLPENNRIVKYEKQRWSLENHKDEHFADMYVHPQEIDYNIETLFELIDASGLEFIGFSNPSFWDLERLLSKAPELVERAKELSDRQLYRLIELLDPEVTHYEFFLGRPPLVKTDWSDDKALLAAIPELNPCIEGFPSQCFFNYNYQIVNLSEPEFEFMQKCDANSTVAEILADVQLGLDEVRKLLQQQLILLAPA”: the “soluble on expression in E. coli” value is reported as “not soluble”.
Consider “MPLMPQPTLMPLLQSPSPQHQHQQQQQHRAIGYPQRTLLPQQKQPQQQQPLAYLTSNFNPQQSSVASFNSSPAFTTISDFDQDFDQDYSNCPSLTASPVSTYSLPAYSSTSQQGSSLSAFDSIPNTTTVPRAAQGAAEPLFNLWADPMQTETWLQPADQLTSKSAGRYGHHRESSLSSLGSAGPASPYSNNTSNPQIAVTDFNDFSGFEDLNYHLVPSKASATLHPSFPGYANSNAVPINGYSRAPAVSKQNNNKSFRQEQSVGSNKPRPAPVASSIMSDSSATPAGEAEVAGRQKNGESQENRDLPDRDQSLPFDDVAINNNAPPKFDRTLTDIMNDELYHPDLVITTSAPAPQQTLTTSNNNFNKVVETANQHLSAMQSPASSNSSPFRQGSPHSATLHDFSSLNMASPQVRLGSAQQMRENSKAVQDAAWQQSLARHNQDMTPKTISPKDALLDYHEPEGESNFPLFPQPDNHGFNSDAMSKALSHQSLDGLPNLGDMSTFNFNFSPSNLDSMPTFNGLQQLPQTLQQYSFVNQPRQPSTVPSLATSRMSSAETGITDSPRSNAVQRPVDTRAEGGTYTCTYHGCPLRFDTPQLLQKHKREGHRQAHGLNSRQPNGMTSTRVDTQAGPHRCERINPSTGKPCNQIFSRPYDLTRHEDTIHNARKKKVRCEICTDEKTFSRADALTRHFRVCHPDVPFNGGKQRKARAGRSG”, for which the “soluble on expression in E. coli” value is “not soluble”.
Take “MKDYRYALPAMMSVRKGESRYFNRGDQHLMNEILARVRAEGKIRLRDIDKKNKESLGNWWNTGPGRRAFEQLYMQGDLMICERNGMEKVYDLTERCLPENIDLSLPTLYEYAQYLFNNTLRAHGAFTWKQLVHLKKNDLKETMRVVLKEQIDAGVVSAIKLADGQNLYVDVTAIEQQLDTDFGLKILSPFDNSLIHRDRLTSLFEFDYRIECYLPAAKRVFGYFCLPILYQNELVGRIDCKAHRTVKELEVISLHLEKTVKDKEHFFFELDQELKRFAAFNQCSTVNDKVVKLIRSKLLEHHHHHH”: the “soluble on expression in E. coli” value was “not soluble”.
The result for “MGNPTGFINVGRALPTERKAGERLSDWLEVYEEIPLKAVEKQASRCMDCGVPFCQSAKSEFAPAVAGCPVNNVIPEWNDLIYRGRWKDAIELLHKTNNFPEFTGRVCPAPCEGACVLGINADPVAIKLHEKEIIDHAFKEGWVVAQPPSARTGKNVAVIGSGPAGLAAAAQLNKAGHMVTVYERADRIGGLLMYGIPNMKLQKELVQRRVDILAEEGIVFVTNTEVGKDVSVEKLESDFDAIVLCIGATVPRDLPVEGRELNGVHFAMDFLKANTKSLLDSEHKDGQYINAQGKNVVVIGGGDTGTDCIGTSLRHQCTNALQLEIMPRPPEKREENNNPWPQWPKRLLVDYGQKEAIEIQGQDPRQYLVMTKKIESDVQGNVKAVHTVDITWERNDKGQMFPQEVAGSEKAIPADIVLIAMGFMGPEGGLVEQFGLEQDNRSNIAAEYDKFATSKQGVFAAGDGRRGQSLIVWAIDEGRRCAREVDSYLMGKSYLPLEHHHHHH” reads “not soluble”; that for “MRLIEQAIEKIESGQVTEGLTALEEAAKTANHEMKYTVAETYYELGHLDKAQAIIDELLMLYPDEGGLYTFAAEILIDLNKEDEAIEMLNEIKEQDPAFLQAQLLLADLYQLQSLDEVAEQKLLKAYEVAPDEPIISFGLGEFYLERGDYIKSIPHLKRAKHGGLTNDQVNVSLKLAEAYSGSGQFEEALPHYDEGLKQKLDPHGLFGYGYTAYLLGDYVLAIEQFQALKALDPDFYDPIPVFGEGFRRGKSFRGSNGCFKRGDDRGLEHHHHHH”, “soluble”; that for “MEGVKKIKNPSTVKDELLELMFRIYRSTNGKYPALEWVKRKPNPNDFNGFREVYEPFLKFRLSQEFDELYTYQKDNRIIGTIALVYKRIKEKGIWWVPEELMNEKVGLIEFFVVDPEFQGKGIGSTLLEFAVKRLRSLGKDPYVVTFPNLEAYSYYYMKKGFREIMRYKEFVILKFNHKKFQLEHHHHHH”, “soluble”.
Turning to “NKNWFVSFKGTFTYAHNEITQYDESPKYPWQSKIGVSANKNAIYIADGLFIDAADIANHQQQLGAAVIPGDIKYINISRDWYGYDDNLTDTDDWVWAKHPGVPEIVYGFGPSIKWKNLDFSFFFQGIARTSFMVKDFHPFGDSMLRNVLSWVADERWSPDNQNTNATYPRLSRKTNNNNNKLSSYWERNGAFLKLKNAEIGYTYKNMRLYISGSNLMTFAPFDLWDPEQGGGSGLSYPTQRVFNIGFQMTINNK”, the “soluble on expression in E. coli” value was “not soluble”.
As for “LINILEQAKQKNTAQGSESTTNKIIGYTTTANVNVDNQNIFSVSKLNNEQFQRKIIVNATEETLDQSQTLQSNESIVLPMPGKYKSTDKNK”, the “soluble on expression in E. coli” value was “soluble”.
As for “MSLTKVSSLGYPRLGENREWKKLIEAYWAGKVSKNDLFAGAKELRLDFLKKQLNAGLDLIPVGDFSLYDHILDLSVQFNIIPKRFAKEPIDIDLYFAIARGNKENVASSMKKWFNTNYHYIVPEWSKQRPKLNNNRLLDLYLEAREVVGDKAKPVITGPITYVALSTGVEDFTAAVKSLLPLYKQVFTELVKAGASYIQVDEPIFVTDEGKDYLQAAKAVYAYFAKEVPDAKFIFQTYFEGLIDSQVLSQLPVDAFGLDFVYGLEENLEAIKTGAFKGKEIFAGVIDGRNIWSSDFVKTSALLETIEEQSAALTIQPSCSLLHVPVTTKNETDLDPVLRNGLAFADEKLTEVKRLAEHLDGREDPAYDLHIAHFDALQAADFRNVKLEDLSRVATKRPSDFAKRRDIQQEKLHLPLLPTTTIGSFPQSREIRRTRLAWKRGDISDAEYKQFIQAEIERWIRIQEDLDLDVLVHGEFERVDMVEFFGQKLAGFTTTKFGWVQSYGSRAVKPPIIYGDVQHLEPITVEETVYAQSLTDRPVKGMLTGPITITNWSFERTDIPRDQLFNQIGLAIKDEIKLLENAGIAIIQVDEAALREGLPLRKSKQKAYLDDAVHAFHIATSSVKDETQIHTHMCYSKFDEIIDAIRALDADVISIETSRSHGDIIESFETAVYPLGIGLGVYDIHSPRVPTKEEVVANIERPLRQLSPTQFWVNPDCGLKTRQEPETIAALKVLVAATKEVRQKLGNEGHHHHHH”, the entry is “soluble”; as for “MMIIGINGSPRKNGNTIEMLKSALDGAKAQGAETELINLYDYNYKGCVSCFSCKLKGGRSYGKCALKDDLKPILEKIEKADAFILASPIYFGMVTGEMRSFMERLLFQYLVYDKDHSSLFNRKIKTGFIYTMNVPETYLDSVGYNKLFESNEATLKRIFGASEYILSTDTYQFDDYSKYEASMFDVEAKKKRREEVFPEDCKRAYEMGASFVKLEHHHHHH”, “not soluble”.
Turning to “MSQKRQTKFQNGKSKTSENSSAKREKGMVVNSKEISDAVGQSKFVLENLRHYTVHPNLAQYYKPLKATALQKFLAQNRKNTSFMLKVTQYDQDKTLLIMTNNPPPCSITQQDKESASKYFSKELLLKVMESHHQHKPTENLWLPRMPQKKKLRSKLKPIFPLILSDDPTSKREQWFRFSTDNDFKSEGKYSKVYALRTQKKMYPQLTFAPVHERDMRKDASKKSASERPISKVIREPLTLASLLEDMPTRTAPGESAFRNGRAPQWIIKKATVIG”, the “soluble on expression in E. coli” value is given as “soluble”.
The result for “MEIGVPKEIKNQEFRVGLSPSSVRTLVEAGHTVFIETQAGIGAGFADQDYVQAGAQVVPSAKDAWSREMVVKVKEPLPAEYDLMQKDQLLFTYLHLAAARELTEQLMRVGLTAIAYETVELPNRSLPLLTPMSIIAGRLSVQFGARFLERQQGGRGVLLGGVPGVKPGKVVILGGGVVGTEAAKMAVGLGAQVQIFDINVERLSYLETLFGSRVELLYSNSAEIETAVAEADLLIGAVLVPGRRAPILVPASLVEQMRTGSVIVDVAVDQGGCVETLHPTSHTQPTYEVFGVVHYGVPNMPGAVPWTATQALNNSTLPYVVKLANQGLKALETDDALAKGLNVQAHRLVHPAVQQVFPDLA” reads “soluble”; that for “MSLTTELGRVLVTGGAGFVGANLVTTLLDRGHWVRSFDRAPSLLPAHPQLEVLQGDITDADVCAAAVDGIDTIFHTAAIIELMGGASVTDEYRQRSFAVNVGGTENLLHAGQRAGVQRFVYTSSNSVVMGGQNIAGGDETLPYTDRFNDLYTETKVVAERFVLAQNGVDGMLTCAIRPSGIWGNGDQTMFRKLFESVLKGHVKVLVGRKSARLDNSYVHNLIHGFILAAAHLVPDGTAPGQAYFINDAEPINMFEFARPVLEACGQRWPKMRISGPAVRWVMTGWQRLHFRFGFPAPLLEPLAVERLYLDNYFSIAKARRDLGYEPLFTTQQALTECLPYYVSLFEQMKNEARAEKTAATVKEGHHHHHH”, “soluble”.
On to “MRAHEIEYKLYGDDMQFVEIELDPEESVIAEAGAMMMMEDYIEMETIFGDGSGPSGGLFGKLMGAGKRLVTGESMFMTVFTNTGHGKRHVSFAAPYPGKIIPVDLTEYQGKVVCQKDAFLCAAKGVSLGIEFTKKIGTGFFGGEGFIMQKLEGDGLAFMHAGGTVYKRELKPGEKLRIDTGCLVAMTKDINYDVEFVGKVKTALFGGEGLFFATLEGPGTVWIQSLTLSRLAARLTSPAAQSTGEGSVLGGLGRLLDGKE”, for which the “soluble on expression in E. coli” value is “not soluble”.
As to “MDSENKTSIAIGCKVCNKYKVTKLLGGGSYGCVHEVIELKTGDRYAMKSEYSSMKKPILLNELKVMKAIYTFSSQHVLKVRDMGVHGSTKFIIMQMLEKNMDEVFELLGGSMTLNTAVATSYQCLEGLEFMHWAGFLHRDIKPNNYCLDANSGQGLRTIYIIDYGICKRFVDNNNVIRQPRKITKFRGTLDFAPIVSHELREHSRGSDLES”, the “soluble on expression in E. coli” value was “not soluble”.
Consider “MGSDKIHHHHHHAGLDAVEIGTGGNPGNHHCPTDELLASEAARKEYLEKFTSRGLTISAFSCHDNPISPNKEEAAASDEILRKSIKLASLMNVPVVNTFSGTAGDSDDAKAPNWPVIPWPTVYSDIKTWQWETKLIPYWKEIGELAAASGVKIGIELHGGFLCHTPYTILKLREETNDAIGVNLDPSHLWWQGIDPVGAIKILGKAGAIHHFHAKDTYLDQDNINMYGLTDMQPYGDVQTRSWTFRSVGCGHSLTEWSDIMSALRTYGYDYVVSIEHEDPLMSIDEGFDRAVTNLQSILIKDKPLDMWWA”, for which the “soluble on expression in E. coli” value was “not soluble”.
In the case of “MGSDKIHHHHHHMFKKVSRDPVHSEIYLYPLEILATDTKVVQRLRFLSQLAGATVVYPGATHTRFAHSLGTMHVAGLYARNLFKESDRIRIVRLAALLHDVGHGPFSHQFDDVVFKRYGYEDGHDEFRNRLITEKLPEEMMRVFNSYNERLKQAVIEDIRESVGEVSLEDAFQEIAKRVVEVYRGEETGSVDFNIIQGPLGADRLDFLLRDSYYSGVGHFAPMNVDRVLRNSLVKEVDGKEILCYHVKVVDNIYSILFSRFMMYKNVYFHKTSRAADLMIQEILLRACEILDLEERLKDLDEFLELTDYSILRELELKGDSETKKLVERFKNRDLWKMVVERPFSAEGFDPSELSLSAARNLIDKIVENIDRVLSSVNVEDSDKSILEEIRDNKEKFFRIDTPYKLTIFHPDEFLQNNVFLYDPKHDEILTVDEYVKKYPAYRLMVSNMIQIVRVYVTEDVREVLFKYGVIPEDGRRVITRW”, the “soluble on expression in E. coli” value was “not soluble”.
